Experimental findings from US20040097713 are described below.

This series deals with GST-IRS-1 C-terminus fusion protein containing Ser1101.
GST-IRS-1 C-terminus fusion protein containing Ser1101, sequence (chain, as listed by the source): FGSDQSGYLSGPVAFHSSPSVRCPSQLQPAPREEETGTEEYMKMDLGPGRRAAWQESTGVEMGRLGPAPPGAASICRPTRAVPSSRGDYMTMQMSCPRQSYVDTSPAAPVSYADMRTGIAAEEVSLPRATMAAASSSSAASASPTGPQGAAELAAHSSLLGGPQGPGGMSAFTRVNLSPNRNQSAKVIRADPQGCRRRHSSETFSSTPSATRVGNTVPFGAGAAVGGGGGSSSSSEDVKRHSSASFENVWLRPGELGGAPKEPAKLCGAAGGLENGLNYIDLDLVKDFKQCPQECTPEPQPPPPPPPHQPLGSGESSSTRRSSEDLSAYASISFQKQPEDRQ

Turning to Akt kinase, active, the “in vitro kinase reaction, phosphorylation at Ser1101 by Western blot” value is given as “The Akt kinase could not effectively phosphorylate IRS-1 at Ser1101, despite the occurrence of this residue within a putative Akt motif”.

As for “protein kinase C theta, active, purified”, the “in vitro kinase reaction, phosphorylation at Ser1101 by Western blot” value is “PKC theta is the only PKC isoform that robustly phosphorylated the GST-IRS-1 fusion protein substrate at Ser1101”.
